Experimental data reported in patent publication US20180134794A1 (Regeneron, published 2018).

B1: H4H13318P2 (antibody, human IgG4, V domains shown)
VH: QVQLVESGGGVVQPGRSLRLSCVASGFSFSNFGMHWVRQAPGKGLEWVAIIWYDGSNKYYSDSVKGRFTISRDNSKNTLYLQMNSLRVDDTAVYYCARFDRWKFDAFDIWGQGTMVTVSS
VL: not shown
B2: H4H13299P2 (antibody, human IgG4, V domains shown)
VH: EVQLVESGGGLVQPGGSLRLSCAASGFIFSNYEMNWVRQAPGKGLEWISYITSSGNMKYYADSVKGRFTISRDNDKNSLYLQMSSLRVEDTAVYYCVRGGRFLEWLTYYVMVVWGQGTTVTVSS
VL: not shown
B3: H4H13290P2 (antibody, human IgG4, V domains shown)
VH: QVQLQESGPGLVKPSETLSLTCTVSGDSISSYYWTWIRQPPGKGLEWIGYIFYRGGTTYNPSLKSRVTISVDTSKNQFSLKLRSVTAADTAVYYCARGDDLLVVTSVYWYIDLWGRGTLVTVSS
VL: not shown
B4: H4H14639D (bispecific antibody, human IgG4, V domains shown)
VH 1: EVQLVESGGGLVQPGTSLRLSCAASGFTFDDYAMHWVRQAPGKGLEWVSGITWNSYNIDYADSVKGRFTISRDNAKNSLYLQMNSLRAEDTALYYCAKDDDYSNYVYFDYWGQGTLVTVSS
VH 2: EVQLVESGGGLVQPGGSLRLSCAASGFIVTTNYMTWLRQAPGKGLEWVSLIYSSGHTYYADSVKGRFTISRHNSKNTLYLQMDSLRAEDTAVYYCASAFAADVFDIWGQGTMVTVSS
VL: not shown
notes: human IgG4 Fc; also called No. 122; MET×MET bispecific antibody
B5: H4H14640D (bispecific antibody, human IgG4, V domains shown)
VH 1: QVQLVQSGTEVKEPGASVKVSCKASGYSFTTYGISWLRQAPGQGLEWMGWISTYNGDTISAQMLQDRVTLTADTSTRTAYMELRSLRSDDTAVYYCARGHEYDSLVYSYWGQGTLVTVSS
VH 2: B4 VH 2
VL: not shown
B6: H4H14635D (bispecific antibody, human IgG4, V domains shown)
VH 1: QVQLVESGGGVVQPGRSLRVSCVVSGFTFSSFGMHWVRQAPDKGLEWVAVIWYDGSNDYYSDSVKGRFTISRDNSKNTLFLQMNRLRAEDTAVYYCARANNWNRFDAFDLWGQGTMVTVSS
VH 2: B4 VH 2
VL: not shown
notes: human IgG4 Fc; also called No. 42; MET×MET bispecific antibody
B7: H4H14639D (bispecific antibody, V domains shown)
VH 1: B4 VH 1
VH 2: B4 VH 2
VL: not shown
B8: H4H13312P2 (antibody, human IgG4, V domains shown)
VH: B4 VH 2
VL: not shown
B9: H4H14639D-Maytansinoid A (bispecific antibody, human IgG4, V domains shown)
VH 1: B4 VH 1
VH 2: B4 VH 2
VL: not shown
modifications: conjugated with SMCC-DM1 diastereomer (Maytansinoid A); residues and chain of attachment not stated
B10: H4H14634D (bispecific antibody, human IgG4, V domains shown)
VH 1: B3 VH
VH 2: B4 VH 2
VL: not shown
B11: H4H13311P2 (antibody, human IgG4, V domains shown)
VH: QVQLVESGGGVVQPGRSLRLSCAASGFTFSSYAMHWVRQAPGRGLEWVAVIWHDGDVEYYVDSVKDRFTISRDNSKSTLYLQMNSLRAEDTALYYCAREAWDLLRPFDYWGQGTLVTVSS
VL: not shown
B12: H4H13300P2 (antibody, human IgG4, V domains shown)
VH: QVQLVESGGGVVQPGRSLRLSCAVSGFTFSSYGMHWVRQAPGKGLEWVANIWYDGTNDYYPYSVKGRFTISRDNSQNTLYLQMNSLRAEDTAVYYCAREDFINYRSFDYWGQGTLVTVSS
VL: not shown
B13: H4H13331P2 (antibody, human IgG4, V domains shown)
VH: QVQLQESGPGLVKSSETLSLTCTVSGGSIRNFYWSWLRQPPGKGLEWIGHINYNGGTDYNPSLKSRVTISVDTSKNQFSLNLNSVTAADTAVYYCARQRFYGMDVWGPGTTVTVSS
VL: not shown

Columns and labels:
[1] = target: T1, human MET (c-Met, hepatocyte growth factor receptor), endogenous on human cell lines (human, UniProt P08581 25-1390); assay: cell-based or functional assay
[2] = target: T1, human MET (c-Met, hepatocyte growth …); assay: flow cytometry, U87MG cells (endogenous MET, low), antibody 10 ug/ml
Protocol: (§1) After one additional wash with FACS buffer, samples were fixed with Cytofix (BD Biosciences, #554655), filtered with FACS buffer and run on an iQue flow cytometer (Intelicyte). Mean fluorescence intensity (MFI) data was determined using FlowJo software (FlowJo LLC).

[3] = target: T1, human MET (c-Met, hepatocyte growth …); assay: flow cytometry, EBC-1 cells (endogenous MET), antibody 10 ug/ml
Protocol: as §1

[4] = target: T1, human MET (c-Met, hepatocyte growth …); assay: cell-based or functional assay; remark: listed apart in the source
[5] = target: T1, human MET (c-Met, hepatocyte growth …); assay: flow cytometry, MDA-MB-231 cells (endogenous MET, low), antibody 10 ug/ml
Protocol: as §1

[6] = target: T1, human MET (c-Met, hepatocyte growth …); assay: flow cytometry, SNU-5 cells (endogenous MET), antibody 10 ug/ml
Protocol: as §1

[7] = target: T1, human MET (c-Met, hepatocyte growth …); assay: flow cytometry, A549 cells (endogenous MET), antibody 10 ug/ml
Protocol: as §1

[8] = target: T1, human MET (c-Met, hepatocyte growth …); assay: flow cytometry, Hs746t cells (endogenous MET), antibody 10 ug/ml
Protocol: as §1

[9] = target: T1, human MET (c-Met, hepatocyte growth …); assay: flow cytometry, NCI-H1993 cells (endogenous MET), antibody 10 ug/ml; expressed as fold above unstained
Protocol: as §1

[10] = target: T1, human MET (c-Met, hepatocyte growth …); assay: flow cytometry, MKN-45 cells (endogenous MET), antibody 10 ug/ml
Protocol: as §1

[11] = target: T2, human MET (c-Met, HGFR) endogenously expressed on cell lines (human, UniProt P08581 25-1390); assay: cell-based or functional assay
[12] = target: T2, human MET (c-Met, HGFR) endogenously …; assay: cell-based or functional assay; remark: listed apart in the source
[13] = target: T1, human MET (c-Met, hepatocyte growth …); assay: cell-based or functional assay; remark: listed apart in the source

T1 sequence (P08581 25-1390 limits assumed, form in doubt): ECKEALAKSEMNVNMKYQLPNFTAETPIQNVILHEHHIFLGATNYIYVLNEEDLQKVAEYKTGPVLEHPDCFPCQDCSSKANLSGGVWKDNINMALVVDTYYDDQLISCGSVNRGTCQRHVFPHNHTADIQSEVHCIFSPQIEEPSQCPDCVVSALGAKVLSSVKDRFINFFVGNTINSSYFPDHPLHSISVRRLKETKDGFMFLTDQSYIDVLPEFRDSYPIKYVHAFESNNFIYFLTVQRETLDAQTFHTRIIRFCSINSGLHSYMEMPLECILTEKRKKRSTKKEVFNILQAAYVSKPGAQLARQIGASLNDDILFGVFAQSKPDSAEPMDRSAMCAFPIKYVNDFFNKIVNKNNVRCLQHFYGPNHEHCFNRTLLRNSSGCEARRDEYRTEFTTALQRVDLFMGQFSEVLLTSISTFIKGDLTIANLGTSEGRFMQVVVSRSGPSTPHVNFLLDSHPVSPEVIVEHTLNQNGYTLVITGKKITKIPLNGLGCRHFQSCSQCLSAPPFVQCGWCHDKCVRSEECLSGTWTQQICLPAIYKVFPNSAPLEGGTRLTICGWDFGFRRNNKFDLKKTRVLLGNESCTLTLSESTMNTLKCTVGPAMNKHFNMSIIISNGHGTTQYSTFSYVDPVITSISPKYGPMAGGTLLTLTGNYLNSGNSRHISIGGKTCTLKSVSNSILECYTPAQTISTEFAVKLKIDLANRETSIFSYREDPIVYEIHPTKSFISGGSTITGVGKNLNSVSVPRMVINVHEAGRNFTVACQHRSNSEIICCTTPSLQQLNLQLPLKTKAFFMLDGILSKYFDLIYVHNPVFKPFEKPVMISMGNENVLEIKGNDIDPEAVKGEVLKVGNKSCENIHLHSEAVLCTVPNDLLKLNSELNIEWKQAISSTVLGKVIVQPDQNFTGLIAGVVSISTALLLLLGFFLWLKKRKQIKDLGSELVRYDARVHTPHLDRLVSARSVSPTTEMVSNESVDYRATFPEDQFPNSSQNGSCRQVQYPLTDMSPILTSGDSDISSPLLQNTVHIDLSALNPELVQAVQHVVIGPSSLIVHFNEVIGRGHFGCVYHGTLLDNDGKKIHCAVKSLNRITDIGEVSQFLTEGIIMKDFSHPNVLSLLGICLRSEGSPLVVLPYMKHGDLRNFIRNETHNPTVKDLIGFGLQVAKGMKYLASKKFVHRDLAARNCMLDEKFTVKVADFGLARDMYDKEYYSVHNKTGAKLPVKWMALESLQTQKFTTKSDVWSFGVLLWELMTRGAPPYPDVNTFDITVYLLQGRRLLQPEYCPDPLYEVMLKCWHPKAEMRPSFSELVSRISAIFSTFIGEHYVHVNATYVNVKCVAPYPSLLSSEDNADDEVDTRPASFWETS
T2 sequence (P08581 25-1390): as the sequence (P08581 25-1390 limits assumed, form in doubt) above

Row | Binder | % Inhibition (HEK293/SRE-Luc Blocking Activity, 1 h mAb pre-bind) [1] | Fold Response (Ligand (HGF)-Independent HEK293/SRE-Luc Activation) [1] | IC50 (HEK293/SRE-Luc Blocking Activity, 1 h mAb pre-bind) [1] | EC50 (Ligand (HGF)-Independent HEK293/SRE-Luc Activation) [1] | further results
1 | B1 | 77% | 3.1 fold | 0.1 nM |  | 
2 | B2 | 51% | 14.4 fold |  | 0.0037 nM | 
3 | B3 | 56% | 9.8 fold | < 0.002 nM | < 0.002 nM | 
4 | B4 | 95% | 1.8 fold | 0.024 nM | 0.057 nM | FACS Binding (MFI Fold Above Isotype Control) [2]: 18 fold; FACS Binding (MFI Fold Above Isotype Control) [3]: 252 fold; Relative MET Level, NCI-H596 cells, antibody 5 ug/ml, 18 hours, immunoblot [4]: 0.24 relative to control (hFc); FACS Binding (MFI Fold Above Isotype Control) [5]: 12 fold; FACS Binding (MFI Fold Above Isotype Control) [6]: 454 fold; FACS Binding (MFI Fold Above Isotype Control) [7]: 10 fold; FACS Binding (MFI Fold Above Isotype Control) [8]: 34 fold; FACS Binding (MFI fold above unstained, per footnote) [9]: 188 fold; FACS Binding (MFI Fold Above Isotype Control) [10]: 156 fold
5 | B5 | 89% | 2.5 fold | 0.52 nM | 6.8 nM | 
6 | B6 | 85% | 2.2 fold | 0.19 nM | 1.4 nM | FACS Binding (MFI Fold Above Isotype Control) [2]: 18 fold; FACS Binding (MFI Fold Above Isotype Control) [3]: 263 fold; FACS Binding (MFI Fold Above Isotype Control) [5]: 11 fold; FACS Binding (MFI Fold Above Isotype Control) [6]: 477 fold; FACS Binding (MFI Fold Above Isotype Control) [7]: 12 fold; FACS Binding (MFI Fold Above Isotype Control) [8]: 39 fold; FACS Binding (MFI Fold Above Isotype Control) [10]: 183 fold
7 | B7 |  |  |  |  | IC50 (read off the curve), inhibition of HGF-induced SRE-luciferase signal [11]: ~0.4 nM
8 | B8 |  |  |  |  | EC50 (read off the curve), HGF-independent SRE-luciferase activation [12]: ~0.4 nM
9 | B9 |  |  |  |  | IC50 (nM), 3-day in vitro cytotoxicity assay, MDA-MB-231 cells (low MET) [13]: > 100 nM; IC50 (nM), 3-day in vitro cytotoxicity assay, SNU-5 cells [13]: 0.4 nM; IC50 (nM), 3-day in vitro cytotoxicity assay, U87MG cells (low MET) [13]: 100 nM
10 | B10 | 85% | 3.4 fold | 0.0097 nM | 0.09 nM | 
11 | B11 | 62% | 5.2 fold | 0.035 nM | 0.3 nM | 
12 | B12 | 69% | 2.8 fold | 0.12 nM | 0.48 nM | 
13 | B13 | 75% | 7.1 fold | < 0.01 nM | 0.0023 nM | 
